{
  "source": "patent US20240002517A1",
  "key": {"[1]": {"target": "G-CSF-R (Homo sapiens (Human)) (UniProt Q99062)", "experiment": "potency ELISA, plate coated with G-CSFR, HRP detection, parallel line analysis; 120 mg/mL formulation, 12 months at 25 C"}, "[2]": {"target": "G-CSF-R (Homo sapiens (Human)) (UniProt Q99062)", "experiment": "potency ELISA, plate coated with G-CSFR, HRP detection, parallel line analysis; 120 mg/mL formulation, 6 months at 5 C"}, "[3]": {"target": "G-CSF-R (Homo sapiens (Human)) (UniProt Q99062)", "experiment": "potency ELISA, plate coated with G-CSFR, HRP detection, parallel line analysis; 120 mg/mL formulation, 3 months at 25 C"}, "[4]": {"target": "G-CSF-R (Homo sapiens (Human)) (UniProt Q99062)", "experiment": "potency ELISA, plate coated with G-CSFR, HRP detection, parallel line analysis; 120 mg/mL formulation, 0 months at 5 C"}, "[5]": {"target": "G-CSF-R (Homo sapiens (Human)) (UniProt Q99062)", "experiment": "potency ELISA, plate coated with G-CSFR, HRP detection, parallel line analysis; 120 mg/mL formulation, 12 months at 5 C"}, "[6]": {"target": "G-CSF-R (Homo sapiens (Human)) (UniProt Q99062)", "experiment": "potency ELISA, plate coated with G-CSFR, HRP detection, parallel line analysis; 120 mg/mL formulation, 3 months at 5 C"}, "[7]": {"target": "G-CSF-R (Homo sapiens (Human)) (UniProt Q99062)", "experiment": "potency ELISA, plate coated with G-CSFR, HRP detection, parallel line analysis; 120 mg/mL formulation, 18 months at 25 C"}, "[8]": {"target": "G-CSF-R (Homo sapiens (Human)) (UniProt Q99062)", "experiment": "potency ELISA, plate coated with G-CSFR, HRP detection, parallel line analysis; 120 mg/mL formulation, 9 months at 25 C"}, "[9]": {"target": "G-CSF-R (Homo sapiens (Human)) (UniProt Q99062)", "experiment": "potency ELISA, plate coated with G-CSFR, HRP detection, parallel line analysis; 120 mg/mL formulation, 0 months at 25 C"}, "[10]": {"target": "G-CSF-R (Homo sapiens (Human)) (UniProt Q99062)", "experiment": "potency ELISA, plate coated with G-CSFR, HRP detection, parallel line analysis; 120 mg/mL formulation, 24 months at 5 C"}, "[11]": {"target": "G-CSF-R (Homo sapiens (Human)) (UniProt Q99062)", "experiment": "potency ELISA, plate coated with G-CSFR, HRP detection, parallel line analysis; 120 mg/mL formulation, 9 months at 5 C"}, "[12]": {"target": "G-CSF-R (Homo sapiens (Human)) (UniProt Q99062)", "experiment": "potency ELISA, plate coated with G-CSFR, HRP detection, parallel line analysis; 120 mg/mL formulation, 6 months at 25 C"}, "[13]": {"target": "G-CSF-R (Homo sapiens (Human)) (UniProt Q99062)", "experiment": "potency ELISA, plate coated with G-CSFR, HRP detection, parallel line analysis; 120 mg/mL formulation, 18 months at 5 C"}},
  "data": [
    {"substance": "CSL324 (antibody)", "values": [
      {"measurement": "potency relative to reference standard", "setting": "[1]", "result": 96, "unit": "%"},
      {"measurement": "potency relative to reference standard", "setting": "[2]", "result": 108, "unit": "%"},
      {"measurement": "potency relative to reference standard", "setting": "[3]", "result": 109, "unit": "%"},
      {"measurement": "potency relative to reference standard", "setting": "[4]", "result": 108, "unit": "%"},
      {"measurement": "potency relative to reference standard", "setting": "[5]", "result": 107, "unit": "%"},
      {"measurement": "potency relative to reference standard", "setting": "[6]", "result": 116, "unit": "%"},
      {"measurement": "potency relative to reference standard", "setting": "[7]", "result": 96, "unit": "%"},
      {"measurement": "potency relative to reference standard", "setting": "[8]", "result": 99, "unit": "%"},
      {"measurement": "potency relative to reference standard", "setting": "[9]", "result": 108, "unit": "%"},
      {"measurement": "potency relative to reference standard", "setting": "[10]", "result": 103, "unit": "%"},
      {"measurement": "potency relative to reference standard", "setting": "[11]", "result": 108, "unit": "%"},
      {"measurement": "potency relative to reference standard", "setting": "[12]", "result": 109, "unit": "%"},
      {"measurement": "potency relative to reference standard", "setting": "[13]", "result": 100, "unit": "%"}
    ]}
  ]
}
